Source: patent US20190112341

System: EV71 structural polyprotein P1 (Wt HK08), unprocessed (98 kDa)

| Substance | proteolytic processing of P1 in planta, anti-VP1 western blot (vectors 1300+1315) | proteolytic processing of P1 in planta, anti-VP1 western blot (vectors 1300+1310) |
| --- | --- | --- |
| EV71 protease 3CD (Wt GDFS08) | the 98 kDa signal completely disappears and a new product is detected that corresponds in molecular weight to VP1 (33.5 kDa) |  |
| EV71 protease 3CD (Wt HK08) |  | the 98 kDa signal completely disappears and a new product is detected that corresponds in molecular weight to VP1 (33.5 kDa) |
